In assay [1] the target is FLAG-mYFP-β2AR (β2-adrenergic receptor), total receptor pulled down with anti-FLAG (mouse) (UniProt P18762). The experiment in a line: single-molecule pulldown (SiMPull) with two-colour co-localisation; FLAG-mYFP-β2AR and FLAG-mCherry-β2AR co-expressed 1:1 in HEK293, ISO-treated; lysate pulled down with anti-FLAG or phospho-specific antibodies; mCherry and mYFP spots within 1 pixel (~150 nm) counted as co-localised; overlap = co-localised mYFP / total mYFP; reference mCherry-mYFP fusion gives 58.8% overlap.

The target is the same in assay [2]. The experiment in a line: single-molecule pulldown (SiMPull) with photobleaching step analysis; lysates (10 mM Tris pH 7.9, 0.1% DDM, 150 mM NaCl, 2 mM EDTA) of cells expressing mYFP-tagged receptor, untreated or ISO 5 min; captured on slides by biotinylated anti-FLAG or by phospho-specific β2AR antibodies with biotinylated secondary IgG; TIRF; bleaching steps of mYFP counted; percent dimer calculated assuming 75% active mYFP.

Assay [3] addresses PKA-phosphorylated β2AR (FLAG-mYFP-β2AR pulled down with anti-pS261/262) (mouse) (UniProt P18762). Nature of the assay: single-molecule pulldown (SiMPull) with two-colour co-localisation; FLAG-mYFP-β2AR and FLAG-mCherry-β2AR co-expressed 1:1 in HEK293, ISO-treated; lysate pulled down with anti-FLAG or phospho-specific antibodies; mCherry and mYFP spots within 1 pixel (~150 nm) counted as co-localised; overlap = co-localised mYFP / total mYFP; reference mCherry-mYFP fusion gives 58.8% overlap.

For assay [4] the target is unchanged. The experiment in a line: single-molecule pulldown (SiMPull) with photobleaching step analysis; lysates (10 mM Tris pH 7.9, 0.1% DDM, 150 mM NaCl, 2 mM EDTA) of cells expressing mYFP-tagged receptor, untreated or ISO 5 min; captured on slides by biotinylated anti-FLAG or by phospho-specific β2AR antibodies with biotinylated secondary IgG; TIRF; bleaching steps of mYFP counted; percent dimer calculated assuming 75% active mYFP.

For assay [5], the target named is GRK-phosphorylated β2AR (FLAG-mYFP-β2AR pulled down with anti-pS355/356) (mouse) (UniProt P18762). The experiment in a line: single-molecule pulldown (SiMPull) with two-colour co-localisation; FLAG-mYFP-β2AR and FLAG-mCherry-β2AR co-expressed 1:1 in HEK293, ISO-treated; lysate pulled down with anti-FLAG or phospho-specific antibodies; mCherry and mYFP spots within 1 pixel (~150 nm) counted as co-localised; overlap = co-localised mYFP / total mYFP; reference mCherry-mYFP fusion gives 58.8% overlap.

Assay [6] has the same target. The experiment in a line: single-molecule pulldown (SiMPull) with photobleaching step analysis; lysates (10 mM Tris pH 7.9, 0.1% DDM, 150 mM NaCl, 2 mM EDTA) of cells expressing mYFP-tagged receptor, untreated or ISO 5 min; captured on slides by biotinylated anti-FLAG or by phospho-specific β2AR antibodies with biotinylated secondary IgG; TIRF; bleaching steps of mYFP counted; percent dimer calculated assuming 75% active mYFP.

For assay [7] the target is unchanged. Described as above. This is another data set of the same source.

Read-outs that look alike come from different tables or passages of the source.

Chain of PKA-phosphorylated β2AR (FLAG-mYFP-β2AR pulled down with anti-pS261/262), P18762 1-418 (receptor; phosphoserine at 261/262; phosphoserine at 261/262; other documents disagree on this pair) (P18762 whole entry): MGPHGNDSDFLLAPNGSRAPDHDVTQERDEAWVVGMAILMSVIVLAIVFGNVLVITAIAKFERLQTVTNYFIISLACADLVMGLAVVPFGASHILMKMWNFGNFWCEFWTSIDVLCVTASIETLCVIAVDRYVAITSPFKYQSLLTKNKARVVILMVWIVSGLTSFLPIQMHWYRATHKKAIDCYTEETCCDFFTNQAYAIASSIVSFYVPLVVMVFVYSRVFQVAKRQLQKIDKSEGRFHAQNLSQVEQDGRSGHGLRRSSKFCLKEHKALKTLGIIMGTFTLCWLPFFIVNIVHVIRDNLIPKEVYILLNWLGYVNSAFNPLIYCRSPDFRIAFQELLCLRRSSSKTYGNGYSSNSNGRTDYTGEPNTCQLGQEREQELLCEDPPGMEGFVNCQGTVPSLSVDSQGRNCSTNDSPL
Chain of GRK-phosphorylated β2AR (FLAG-mYFP-β2AR pulled down with anti-pS355/356), P18762 1-418 (receptor; phosphoserine at 355/356; phosphoserine at 355/356; other documents disagree on this pair) (P18762 whole entry): as above
Chain of FLAG-mYFP-β2AR (β2-adrenergic receptor), total receptor pulled down with anti-FLAG, P18762 1-418 (receptor; other documents disagree on this pair) (P18762 whole entry): as above

In turn, “FLAG-mYFP-β2AR (β2-adrenergic receptor), total receptor pulled down with anti-FLAG, P18762 1-418 (receptor; other documents disagree on this pair)” gave a percent overlap between mYFP and mCherry copies in assay [1] of 13.2%. Besides, in assay [2], the percent dimers is 42.7% and the stoichiometry N is 2.

On to “PKA-phosphorylated β2AR (FLAG-mYFP-β2AR pulled down with anti-pS261/262), P18762 1-418 (receptor; phosphoserine at 261/262; phosphoserine at 261/262; other documents disagree on this pair)”, for which, in assay [3], the percent overlap between mYFP and mCherry copies is over 20.4%. In assay [4], the percent dimers was 68.8% and the stoichiometry N is 2.

Consider “GRK-phosphorylated β2AR (FLAG-mYFP-β2AR pulled down with anti-pS355/356), P18762 1-418 (receptor; phosphoserine at 355/356; phosphoserine at 355/356; other documents disagree on this pair)”, for which, in assay [5], the percent overlap between mYFP and mCherry copies was under 3.2%. In addition, the percent monomers in assay [6] was 86.5%. In assay [7], the percent dimers was 12% and the percent monomers is 88%.

The record behind these values is article PMC5849717.
